Results on 3 proteins are retold here after patent US20070298494A1 (KANSAS STATE UNIVERSITY RESEARCH FOUNDATION, published 2007).

The chains are these.
B1: C-K4-M2GlyR (peptide)
peptide: PARVGLGITTVLTMTTQSSGSRAKKKK
notes: Synthetic peptide; tested for association with itself in solution by BS3 cross-linking and SDS-PAGE; also called CK4ALB
B2: N-K4-M2GlyR (peptide)
peptide: KKKKPARVGLGITTVLTMTTQSSGSRA
notes: Synthetic peptide; tested for association with itself in solution by BS3 cross-linking and SDS-PAGE; also called NK4ALB
B3: NK4A'Wa' (peptide)
peptide: KKKKAARVGLGITTVWVTTIGLGVRAA
notes: Synthetic peptide; tested for association with itself in solution by BS3 cross-linking and SDS-PAGE

The data set deals with the molecule itself. As to the kind of experiment: BS3 chemical cross-linking in solution, SDS-PAGE, silver stain; association of the peptide with itself. The protocol:
In order to visualize the oligomeric state of the peptide in solution a chemical cross-linking protocol was developed. Calculated amounts of each peptide were weighted out and dissolved in 1 mL of distilled water to make 1 mM stock solutions. A 100 mM stock solution of the chemical crosslinking reagent Bis[Sulfosuccinimidyl]suberate, BS³, (Pierce Chemical Co., Rockford, Ill.) was prepared in dimethyl sulfoxide (DMSO). In typical reactions, 5-30 μL of 1.0 mM stock solution of peptide are added to 64-94 μL of 10 mM HEPES buffer, pH 8.1 to give a range of concentrations starting at 50 μM rising up to 300 μM. Sample were allowed to sit at room temperature for 15 minutes. 1-6 μL of 100 mM BS³ was then added to the previously prepared peptide such that the crosslinking reagent was present in 20-fold excess. The final volume for each reaction was 100 μL. After reacting for 30 minutes, the reaction was stopped with the addition of 10 μL 1.0 N HCl. Each sample was then vacuum dried. Later dry samples were re-dissolved in 60 μL of distilled water along with 60 μL of a 2×-tricine SDS sample buffer (Novex, San Diego). All samples were then boiled at 100° C. for 5 minutes. 5 μL aliquots of each SDS boiled sample was then loaded into separate lanes of pre-cast, 1.0 mm, 10 well, 10-20% tricine gels (Novex, San Diego). Pre-made Novex tricine-SDS buffer was used in the electrophoresis. The reference well contained 1 μL of MultiMark® multi-colored molecular weight standard (Novex, San Diego). The electrophoresis was carried out at a constant 110 Volts for 90 minutes. The gel was then fixed in 40% methanol in water and the cross-linked peptides visualized using silver staining (SilverXpress® silver staining kit, Invitrogen, Carlsbad, Calif.).
Turning to B1, the binding result is recorded as “binds”. In the case of B2, the binding result was “binds”.

With B3, the binding result is on record as “no binding”.
